Data from the supplement of paper PMC9170038.

System: MS2 coat protein
Experiment: apparent KD of MS2 coat protein; designed switch direction (-1 OFF switch, 1 ON switch): -1; higher = weaker reporter binding
Procedure, shortened: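 Each step of the titration lasted 0.8–1.5 h at the lowest concentration and 10–20 min at the highest. The protein, SNAP-549-labelled MS2 coat protein, went from 0.7 or 1.5 nM doubling to 3 µM over RNA switches transcribed on Illumina chips by stalled E. coli RNA polymerase. Normalised cluster fluorescence was curve-fitted, and the per-design median over clusters is given as apparent KD.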

[1] = input ligand: microRNA oligo, concentration not stated
[2] = Eterna round: R95, input ligand: microRNA oligo, concentration not stated
[3] = Eterna round: R95, input ligand: FMN 200 uM
[4] = Eterna round: R95, input ligand: none

Row | Sequence | apparent KD of MS2 coat protein (input ligand: FMN 200 uM) [µM] | apparent KD of MS2 coat protein (input ligand: none) [µM] | apparent KD of MS2 coat protein [1] [µM] | apparent KD of MS2 coat protein [2] [µM] | apparent KD of MS2 coat protein [3] [µM] | apparent KD of MS2 coat protein [4] [µM]
1 | CACAAAACUGUCAGGAUAUCAGAUGCCGACCCAUAUGAGAAGGGACAUGAGGAUCACCCAUGUACUGGUUCUCA [BmEX4 B.6] (Eterna round: R97, puzzle: Brourd's mod of Exclusion 4) | 0.0139 | 0.0198 |  |  |  | 
2 | GACCUCCCUGUAAGGAUAUCCAUGCAUCAAAGCAAGGAGAAGGUACAUGAGGAUCACCCAUGUCACCCGCGUUA (Eterna round: R97, puzzle: Brourd's mod of Exclusion 4) | 0.0231 | 0.0154 |  |  |  | 
3 | CCUCAACAUGAGGAUCACCCAUGUAAGGAUAUGUUGCAGAGCCUCGAGGUACCCGUCAACAGAAGGUAUAUAGA [Eternabot (L1) Solution 16] (Eterna round: R97, puzzle: Exclusion 1) | 0.0451 | 0.0307 |  |  |  | 
4 | CAUGUCCAACGAGGAUAUGGGACAGGAGGUGUACCAGAAGGCGUACGGACAUGAGGAUCACCCAUGUCGCGCGGUGCGAUGUGG [15th something] (Eterna round: R96, puzzle: Exclusion NG 1) | 0.0989 | 0.0628 | 0.0398 |  |  | 
5 | UUAAUACAUGUAGGAUAUGCGUGGCGAAGCUAUGCAGAAGGACAUGAGGAUCACCCAUGUCUCUGCGUCCGCGUACGGAUGCAA [JL Eng1 1.21 mod 5] (Eterna round: R96, puzzle: Exclusion NG 1) | 0.0139 | 0.0158 | 0.0116 |  |  | 
6 | AUUGCGCGAGGAUAUACGAGAGACCUGUGUCAGAACCAUGGACAUGAGGAUCACCCAUGUAGAAGGCGUGCUCU [Eternabot (L1) Solution 73] (Eterna round: R97, puzzle: Exclusion 2) | 0.0786 | 1.2 |  |  |  | 
7 | AAGAUGCGGGUAGGAUAUGGAAAUUAAUAAAGACCAGAAGGACUGGUCACACAACAUGAGGAUCACCCAUGUGUGUGUUGUGAA [AK ExNG1-6] (Eterna round: R96, puzzle: Exclusion NG 1) |  |  | 0.00906 |  |  | 
8 | AAUAAUGAGAAGGAUAUCACUAGCGAUAGCUAGUGAGAAGGUCUCACAUGAGGAUCACCCAUGUGUUCCAAUAA [Mod1 Ex6/6-A4 by Brourd] (Eterna round: R97, puzzle: Exclusion 6) | 0.417 | 0.221 |  |  |  | 
9 | ACAUGAGGAUCACCCAUGUAAACAUAAUGGCUCAUGUAGAGUCAGGAUAUGCGUGGCGAACAACCGCAGAAGGGACAAGACUGG [Deportation 27 - Jieux - Exclusion NG 3] (Eterna round: R96, puzzle: Exclusion NG 3) | 0.0257 | 0.029 | 0.0204 |  |  | 
10 | CCCUCACAUGAGGAUCACCCAUGUCAGGAUAUUCGAGGCGCAAAUGCGCCAAAUGCAGGAAGAAGGGACGUGCC [Isqubemaor] (puzzle: Exclusion 1) |  |  |  | 0.014 |  | 
11 | GUGUAGUGAGGAUAUACAUGAGGAUCACCCAUGUGAAUAAGAUAGAAUAAGAUAAAGUGUAGAAGGUAUAGUGU [Excluse me!!! 17 - Jieux - Exclusion 3] (Eterna round: R96, puzzle: Exclusion 3) | 0.0608 | 0.0584 | 0.0418 |  |  | 
12 | ACAUGAGGAUCACCCAUGUAAUCAUGAUGGCUGAUGUAGAGGUAGGAUAUGAGUGGCUUUCUAUCUCAGAAGGACCAAGACUGG [Deportation 39 - Jieux - Exclusion NG 3] (Eterna round: R96, puzzle: Exclusion NG 3) | 0.029 | 0.0273 | 0.0216 |  |  | 
13 | UAGAUGGGAGGAUAUACAUAGAUACAGAUUCAUGUAGUGCUACAUGAGGAUCACCCAUGUAGAAGGCCCGUCUU [JL-ex2-2.18 Mayanne mod] (puzzle: Exclusion 2) |  |  |  | 0.0316 |  | 
14 | UCAAAAUAGUCAGGAUAUGCAGAUUCAGCGUCCGCAGAAGGGACAGUGGGCUGGUCCGACACAUGAGGAUCACCCAUGUAAAAG [Teerreanor] (Eterna round: R96, puzzle: Exclusion NG 1) | 0.26 | 0.109 | 0.14 |  |  | 
15 | AUAUAAACAUAGGAUAUCGAAUUUAUCAUUUAACGAGAAGGAUGAACAUGAGGAUCACCCAUGUGGUAUCAUGG [Mat - Exclusion 6 - JL Mod - D5] (puzzle: Exclusion 6) |  |  |  | 0.333 | 0.553 | 0.34
16 | UUAAUGUGAGGAUAUCAAGUGUGAUAGAGUAAUGGUAAAUAUGAGAAGGCACAUGAGGAUCACCCAUGUUCUUC [Mat - Exclusion 4 - Mod of JL - D59] (puzzle: Exclusion 4) |  |  |  | 0.014 |  | 
17 | AAUAACAGAGGAUAUACUAUUUUAUGUGUUUGUUGUUUUGAACAUGAGGAUCACCCAUGUAGAAGGCUGAAUAA [JMF 26] (puzzle: Exclusion 2) |  |  |  | 0.0221 |  | 

Row | Sequence | apparent KD of MS2 coat protein (input ligand: FMN 200 uM) [µM] | apparent KD of MS2 coat protein (input ligand: none) [µM] | apparent KD of MS2 coat protein [1] [µM] | apparent KD of MS2 coat protein [2] [µM] | apparent KD of MS2 coat protein [3] [µM] | apparent KD of MS2 coat protein [4] [µM]
18 | GUUUCGAGACGGAGAUCCGACAUGAGGAUCACCCAUGUCUCACAAGCUUUUUGCUCGUCUUAUACUCCUCUGUUCUC [Elimod 48 - Jieux - Sensor, turn-off variant 1] (Eterna round: R97, puzzle: Sensor, turn-off variant 1) | 0.0156 | 0.0177 |  |  |  | 
19 | AAGAAACAUGAGGAUCACCCAUGUCAGGAUAUCUCGAAAAGCAUAGAAAUAUGCGAAGAGAGAAGGGACUGCCC [ChP Ext 10-04-2015 #2] (puzzle: Exclusion 1) |  |  |  | 0.0193 | 0.0208 | 0.0192
20 | AUUCGAAAGAUCCACAUGGACAUGAGGAUCACCCAUGUGCAAGCCUUUUUCUCGUCACUAUCGUCAAAAGACGAUAG [Omei Mir Offv1 A7] (Eterna round: R97, puzzle: Sensor, turn-off variant 1) | 0.744 | 0.848 |  |  |  | 
21 | CAUACUCAAGUGAGGAUAUAGUCUCGGAUACGGAACUAGAAGGCACAUGAGGAUCACCCAUGUAGAGAGUAAAG [EX-4 Malc #28] (puzzle: Brourd's mod of Exclusion 4) |  |  |  | 0.0228 | 0.0566 | 0.0159
22 | CAAUACAAGCGAAGAUCCUACAUGAGGAUCACCCAUGUGCUCGUCUUAAAAGGUACUGAGACGAAAGUCUCGGUACC [Mat - Sensor, turn-off var - Eli Mod - D99] (Eterna round: R97, puzzle: Sensor, turn-off variant 1) | 0.28 | 0.367 |  |  |  | 
23 | GUUACACAUGAGGAUCACCCAUGUGAGGAUAUGGAUUCGUUGCAAGUAGGCGAUGGAUCCAGAAGGCGCGUGAG [JR_Ex1_Sub080] (Eterna round: R97, puzzle: Exclusion 1) | 0.0587 | 0.0505 |  |  |  | 
24 | CAGUACUGAGGAUAUACAUGAGGAUCACCCAUGUGUUCCAGCUAGGAAACGAGCAAAAGUAGAAGGCAGUACUG [salish99_ex3_r3_071] (puzzle: Exclusion 3) |  |  |  | 0.0197 |  | 
25 | CUAGGGCACAUUUAAACGCCCUAACAUGAGGAUCACCCAUGUCAGGAUAUGUAGGCAAAGACCCUACAGAAGGGACAUGUCCUA [Recebe] (Eterna round: R96, puzzle: Exclusion NG 3) | 0.303 | 0.0529 | 0.0429 |  |  | 
26 | UUUGUUUGCACAGGAUAUUGUUAUUUUAUUUUUCAAGAAGGGUGUACAUGAGGAUCACCCAUGUUAAGGUUUAAUCUUUCACUU [JR_ExcNG1_Sub010] (Eterna round: R96, puzzle: Exclusion NG 1) | 0.346 | 0.619 | 0.479 |  |  | 
27 | CCUGUGUAAGGAUAUGCCUGGCCGUGAGGCCAGAUUGAAUAGCAGAAGGUACAUGAGGAUCACCCAUGUACGGG [jl-ex4-4.61 ViennaUCT mod] (Eterna round: R97, puzzle: Exclusion 4) | 0.206 | 0.0329 |  |  |  | 
28 | CUAGAGCGAGGAUAUACAUGAGGAUCACCCAUGUGGCAGCCGGGUAGGAGUGACGUCGGUAGAAGGCGCACCCG [Anrate] (puzzle: Exclusion 3) |  |  |  | 0.0332 | 0.0275 | 0.0379
29 | UCCCUGUCAGGAUAUACAUGAGGAUCACCCAUGUCUCUCCGACACGGGAAAAGGAACUGUAGAAGGGACAGGAU [Xezaeseris] (puzzle: Exclusion 3) |  |  |  | 0.0123 | 0.0196 | 0.0152
30 | GUCACUAGAGGAUAUACAAUGGUAUAUGAUCCUAGAGACAUACAUGAGGAUCACCCAUGUAGAAGGCUAGUAAU [Exclusion 2 - 6] (puzzle: Exclusion 2) |  |  |  | 0.0687 |  | 
31 | CGUCAGUCAGGAUAUGCAUACGUAGACAUGAGGAUCACCCAUGUGACGUGGGACUGGUGUGUAGAAGGGACGAACA [EX5 #78] (Eterna round: R97, puzzle: Exclusion 5) | 0.0231 | 0.0213 |  |  |  | 
32 | ACGUAACGAGCUUGGUCCAACAUGAGGAUCACCCAUGUGCUCGUCUUAUAACGUACUGUCACGUUAGUGAUAGUGCG [Sensor v3, turn-off variant 1 (MOD of Eli's v1-13 v.6)] (puzzle: Sensor v3, turn-off variant 1) |  |  |  | 0.194 | 0.286 | 0.36
33 | UUAUAAAGAGUGAGGAUAUGCUGGUCCUUGGAUCAGCAGAAGGCACAUGAGGAUCACCCAUGUAAAAUAAUAUU [Mat - Exclusion 4 - JL Mod - D40] (puzzle: Brourd's mod of Exclusion 4) |  |  |  | 0.0254 |  | 
34 | UGAUGUAGAGGAUAUUGUAUGGCUCACAUGAGGAUCACCCAUGUAGGAUCACCUAGAGCCCGAGAAGGCUAGAGGU [Eternabot (L2) Solution 4] (Eterna round: R97, puzzle: Exclusion 5) | 0.047 | 0.0458 |  |  |  | 
